This assay addresses full length human galectin-3 (hGal3), Cys173 mutated to Thr (human, UniProt P17931 1-250, Cys173 mutated to Thr). Description: SPR.

full length human galectin-3 (hGal3), Cys173 mutated to Thr, sequence (P17931 other isoform, or with tags, fused parts or gaps Cys173 mutated to Thr): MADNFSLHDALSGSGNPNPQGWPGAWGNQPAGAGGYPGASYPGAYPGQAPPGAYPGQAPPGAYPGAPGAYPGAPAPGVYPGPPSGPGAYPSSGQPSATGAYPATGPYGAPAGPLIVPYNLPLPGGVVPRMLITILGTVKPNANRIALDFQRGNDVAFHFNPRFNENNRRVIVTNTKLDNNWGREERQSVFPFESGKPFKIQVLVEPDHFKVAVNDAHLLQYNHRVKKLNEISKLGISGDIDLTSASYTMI

B1: GaletuzuFab-PAS200-Cys (Fab, V domains shown)
VH: QIQLVQSGAEVKKPGESLKISCKVSGYTFTDYAIHWVRQMPGKGLKWMGWINTYTGKPIYADDFKGQVIISLDKSINTAYLQWSSLKASDTAIYYCARGTMMASLDYWGQGTTVTVSS
VL: DVVMTQSPSSLSASVGDRVTITCKSSQSLVHSDGKTYLSWIQQKPGKAPKGLIYLVSKLDSGVPSRFSGSGSETDFTLTISSLQPEDSATYYCWQATHFPLTFGPGTKVDIR
Regarding B1, binding was put at a Kd of 0.31 nM.

Values taken from article PMC8016950 (2021).
